Laboratory results reported in patent publication US10766952B2, “Methods for reducing migraine frequency in a subject in need thereof” (Beth Israel Deaconess Medical Center, Inc., priority 2017, dated 2020).

Legend:
[1] = test system: wide-dynamic range (WDR) trigeminovascular neurons; assay: Activation of central trigeminovascular neurons by cortical spreading depression (CSD), WDR neurons; assay type: in vivo, rat
Description: Cortical spreading depression (CSD) was induced mechanically by inserting a glass micropipette (tip diameter 25 μm) about 1 mm into the visual cortex for 10 sec. At a propagation rate of 3-5 mm/min, a single wave of CSD was expected to enter the neuronal receptive field within 1-2 min of cortical stimulation. For verification of CSD, cortical activity was recorded (electrocorticogram) with a glass micropipette (0.9% saline, ˜1 megohm, 7 um tip) placed just below the surface of the cerebral cortex (approximately 100 μm). The electrocorticogram electrode was positioned about 6 mm anterior to the visual cortex. […]
The experimental protocol included two parts. […] In the first part, the baseline neuronal profile was established by (a) mapping the dural, cutaneous and corneal receptive field; (b) measuring responses (mean spikes/sec) to mechanical stimulation of the dura (with a fixed force), skin (brush, pressure, pinch) and cornea (brush), and (c) measuring spontaneous firing rate (recorded over 30 min prior to treatment). […] In the second part, CSD was induced 4 hours after administration of CGRP-mAb or isotype-conAb and 2 hours later (i.e., 6 hours after treatment) receptive field size, spontaneous activity rate, and response magnitude to stimulation of the dura, skin and cornea were measured again. […]

[2] = target: T1, human α-CGRP fragments and variants (Homo sapiens, UniProt P06881); assay: Biacore affinity of G1 Fab to human α-CGRP fragments and variants on chip; assay type: binding; settings: CGRP on chip: 38A (25-38A), 37° C.
T1 construct: host or cells: synthetic peptides
Description: Biacore assay for affinity determination. […] All Biacore assays were conducted in HBS-EP running buffer (10 mM HEPES pH 7.4, 150 mM NaCl, 3 mM EDTA, 0.005% v/v polysorbate P20). CGRP surfaces were prepared by diluting the N-biotinylated CGRP to a concentration of less than 0.001 mg/mL into HBS-EP buffer and injecting it across the SA sensor chip using variable contact times. Low capacity surfaces, corresponding to capture levels <50 response units (RU) were used for high-resolution kinetic studies, whereas high capacity surfaces (about 800 RU of captured CGRP) were used for concentration studies, screening, and solution affinity determinations. […] Samples were typically injected for lminute at 100 μL/min and dissociation times of at least 10 minutes were allowed. After each binding cycle, surfaces were regenerated with 25 mM NaOH in 25% v/v ethanol, which was tolerated over hundreds of cycles. An entire titration series (typically generated in duplicate) was fit globally to a 1:1 Langmuir binding model using the BlAevaluation program. This returned a unique pair of association and dissociation kinetic rate constants (respectively, kon and koff) for each binding interaction, whose ratio gave the equilibrium dissociation constant (KD=koff/[…]).

[3] = test system: high-threshold (HT) trigeminovascular neurons; assay: Activation and sensitization of central trigeminovascular neurons by cortical spreading depression (CSD), HT neurons; assay type: in vivo, rat; settings: for firing of HT neurons before CSD: 30 mg/kg IV, 4 hours after treatment; for firing of HT neurons after CSD: 6 hours after treatment; for expected CSD-induced activation of the HT neurons: 30 mg/kg IV 4 hours before CSD
Description: Cortical spreading depression (CSD) was induced mechanically by inserting a glass micropipette (tip diameter 25 μm) about 1 mm into the visual cortex for 10 sec. At a propagation rate of 3-5 mm/min, a single wave of CSD was expected to enter the neuronal receptive field within 1-2 min of cortical stimulation. For verification of CSD, cortical activity was recorded (electrocorticogram) with a glass micropipette (0.9% saline, ˜1 megohm, 7 um tip) placed just below the surface of the cerebral cortex (approximately 100 μm). The electrocorticogram electrode was positioned about 6 mm anterior to the visual cortex.
It was diluted in saline to a final dose of 30 mg/kg and administered intravenously (bolus injection, total volume 0.6-0.7 ml). A corresponding human IgG2 isotype control antibody (isotype-conAb) was also diluted in saline to a final dose of 30 mg/kg and administered intravenously (bolus injection, total volume 1.6-2.0 ml).
The experimental protocol included two parts. The first part was designed to compare CGRP-mAb vs isotype-conAb effects on spontaneous and induced activity of naïve trigeminovascular neurons, and the second part was designed to test CGRP-mAb vs isotype-conAb effects on the activation and sensitization of trigeminovascular neurons by CSD. Both parts included sampling of WDR and HT neurons in male and female rats. In the first part, the baseline neuronal profile was established by (a) mapping the dural, cutaneous and corneal receptive field; (b) measuring responses (mean spikes/sec) to mechanical stimulation of the dura (with a fixed force), skin (brush, pressure, pinch) and cornea (brush), and (c) measuring spontaneous firing rate (recorded over 30 min prior to treatment). Once the baseline was established, CGRP-mAb or isotype-conAb were administered and receptive fields were remapped, neuronal responses to stimulation of the dura, skin and cornea were re-examined, and the spontaneous activity rate was re-sampled at 1, 2, 3, and 4 hours post-treatment. The resulting values for each measure were then compared with the respective baseline values obtained before treatment. In the second part, CSD was induced 4 hours after administration of CGRP-mAb or isotype-conAb and 2 hours later (i.e., 6 hours after treatment) receptive field size, spontaneous activity rate, and response magnitude to stimulation of the dura, skin and cornea were measured again. The resulting post-CSD values for each measure were then compared with the respective pre-CSD values obtained at the 4-hour post-treatment time. This part was initiated only in cases in which the physiological condition of the rats (heart rate, blood pressure, respiration, end tidal CO2) and the neuronal isolation signal (signal-to-noise ratio ≥1:3) were stable at the 4-hour post-treatment time point.
To calculate the response magnitude to each stimulus, the mean firing frequency occurring before the onset of the first stimulus (30 min for spontaneous activity, 10 sec for mechanical stimulation of the dura, skin and cornea) was subtracted from the mean firing frequency that occurred throughout the duration of each stimulus. […] A neuron was considered activated when its mean firing rate after CSD exceeded its mean baseline activity by 2 standard deviations of that mean for a period >10 min, which translated to ≥33% increase in activity. […] Mean firing rates of respective values were compared using nonparametric statistics (Wilcoxon signed-ranks test). Two-tailed level of significance was set at 0.05.

[4] = male and female rats, activated/tested

B1: fremanezumab (antibody)
heavy: EVQLVESGGGLVQPGGSLRLSCAASGFTFSNYWISWVRQAPGKGLEWVAEIRSESDASATHYAEAVKGRFTISRDNAKNSLYLQMNSLRAEDTAVYYCLAYFDYGLAIQNYWGQGTLVTVSSASTKGPSVFPLAPCSRSTSESTAALGCLVKDYFPEPVTVSWNSGALTSGVHTFPAVLQSSGLYSLSSVVTVPSSNFGTQTYTCNVDHKPSNTKVDKTVERKCCVECPPCPAPPVAGPSVFLFPPKPKDTLMISRTPEVTCVVVDVSHEDPEVQFNWYVDGVEVHNAKTKPREEQFNSTFRVVSVLTVVHQDWLNGKEYKCKVSNKGLPSSIEKTISKTKGQPREPQVYTLPPSREEMTKNQVSLTCLVKGFYPSDIAVEWESNGQPENNYKTTPPMLDSDGSFFLYSKLTVDKSRWQQGNVFSCSVMHEALHNHYTQKSLSLSPGK
light: EIVLTQSPATLSLSPGERATLSCKASKRVTTYVSWYQQKPGQAPRLLIYGASNRYLGIPARFSGSGSGTDFTLTISSLEPEDFAVYYCSQSYNYPYTFGQGTKLEIKRTVAAPSVFIFPPSDEQLKSGTASVVCLLNNFYPREAKVQWKVDNALQSGNSQESVTEQDSKDSTYSLSSTLTLSKADYEKHKVYACEVTHQGLSSPVTKSFNRGEC
notes: humanized anti-CGRP antagonist antibody, vectors ATCC PTA-6867 and PTA-6866
For B1, the “difference in WDR neurons activated by CSD versus isotype-conAb” value ([1]; 5/13 versus 4/10) was 2%, the “WDR neurons activated by CSD (case-by-case analysis)” value [1, 4] was 5/13 and the KD [2] was “No binding”. For the same molecule, the “difference in HT neurons activated by CSD versus isotype-conAb” value ([3]; 2/14 versus 13/13) was 86%, the “HT neuronal responses to dural indentation with VFH before CSD” value ([3]; female rats) was 10.5±1.6 and the “HT neurons with expansion of dural receptive fields after CSD” value ([3]; female rats) was 0/6. The “HT neurons with expansion of facial receptive fields after CSD” value ([3]; female rats) was 0/6, the “firing of HT neurons before CSD” value ([3]; female rats, 6 HT neurons) was 3.3±1.7 spikes/sec and the “firing of HT neurons after CSD” value ([3]; female rats, 6 HT neurons, 2 hours after CSD, p=0.45) was 5.0±3.4 spikes/sec. For the same molecule, the “HT neuronal response to brushing the cornea after CSD” value ([3]; female rats, 6 HT neurons, p=0.51) was “remained unchanged”, the “expected CSD-induced activation of the HT neurons” value ([3]; female rats) was “prevented” and the “HT neuronal responses to dural indentation with VFH after CSD” value ([3]; female rats, 2 hours after CSD, p=0.72) was 8.1±6.4. The “HT neuronal responses to brush, pressure and pinch of the skin after CSD” value ([3]; male and female rats, 2 hours after CSD, p=0.35, 0.63, 0.78) was “remained unchanged”, the “HT neurons activated by CSD (case-by-case analysis)” value [3, 4] was 2/14 and the “HT neuronal responses to dural indentation with VFH before CSD” value ([3]; male rats) was 1.8±0.6. For the same molecule, the “HT neurons with expansion of dural receptive fields after CSD” value ([3]; male rats) was 2/8, the “HT neurons with expansion of facial receptive fields after CSD” value ([3]; male rats) was 2/8 and the “HT neuronal response to brushing the cornea before CSD” value ([3]; male rats, 8 HT neurons) was 10.8±3.3 spikes/sec. For the same molecule, the “firing of HT neurons before CSD” value ([3]; male rats, 8 HT neurons) was 1.2±0.6 spikes/sec, the “firing of HT neurons after CSD” value ([3]; male rats, 8 HT neurons, 2 hours after CSD, p=0.29) was 1.9±1.5 spikes/sec and the “HT neuronal response to brushing the cornea after CSD” value ([3]; male rats, 8 HT neurons, p=0.60) was 9.4±1.8 spikes/sec. The “expected CSD-induced activation of the HT neurons” value ([3]; male rats) was “prevented” and the “HT neuronal responses to dural indentation with VFH after CSD” value ([3]; male rats, 2 hours after CSD, p=0.83) was 1.9±1.5.
